Source: patent US20180282425A1
Like-named read-outs stand apart in the source and are kept apart here.

Key:
[1] = molecular target: C5a receptor C5aR (CD88) on human blood neutrophils (human) (UniProt P21730); experiment: cell-based or functional assay
[2] = molecular target: C5a receptor C5aR (CD88) on human blood neutrophils (human) (UniProt P21730); experiment: cell-based or functional assay; remark: listed apart in the source

Chain of C5a receptor C5aR (CD88) on human blood neutrophils (human) (P21730 whole entry): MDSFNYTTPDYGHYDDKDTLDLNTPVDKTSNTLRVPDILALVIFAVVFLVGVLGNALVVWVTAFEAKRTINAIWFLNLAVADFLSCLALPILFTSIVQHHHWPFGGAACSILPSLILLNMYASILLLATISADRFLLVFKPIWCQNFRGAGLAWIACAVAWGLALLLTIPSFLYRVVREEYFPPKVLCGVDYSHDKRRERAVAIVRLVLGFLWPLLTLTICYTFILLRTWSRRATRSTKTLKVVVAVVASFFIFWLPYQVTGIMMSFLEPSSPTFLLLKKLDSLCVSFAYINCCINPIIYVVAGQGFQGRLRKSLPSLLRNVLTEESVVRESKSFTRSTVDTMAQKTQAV

“recombinant human C5a (from UniProt P01031 678-751) (ligand)” gave a CD11b (mean MFI) on blood neutrophils; huPP|rhC5a (20 nM), no blocker [1] of 8330 MFI and a CD11b (mean MFI) on blood neutrophils; huPP|rhC5a (20 nM), no blocker [2] of 6330 MFI.
Work on PMX-53 (peptide) yielded a Blocking activity (%) on CD11b upregulation; Pat. 088|PMX 53 (20 µM) [1] of 104%, a Blocking activity (%) on CD11b upregulation; Pat. 092|PMX 53 (20 µM) [1] of 109% and a Blocking activity (%) on CD11b upregulation; huPP|rhC5a|PMX 53 (20 µM) [1] of 108%. It also gave a CD11b (mean MFI); Pat. 088|PMX 53 (20 µM) [1] of 2030 MFI, a CD11b (mean MFI); Pat. 092|PMX 53 (20 µM) [1] of 1910 MFI and a CD11b (mean MFI); huPP|rhC5a|PMX 53 (20 µM) [1] of 1850 MFI. It also gave a Blocking activity (%) on CD11b upregulation; Pat. 088|PMX 53 (50 nM) [2] of 55.5%, a Blocking activity (%) on CD11b upregulation; Pat. 092|PMX 53 (50 nM) [2] of 56.7% and a Blocking activity (%) on CD11b upregulation; huPP|rhC5a|PMX 53 (50 nM) [2] of 50.3%. The CD11b (mean MFI); Pat. 088|PMX 53 (50 nM) [2] was 4730 MFI, the CD11b (mean MFI); Pat. 092|PMX 53 (50 nM) [2] was 4660 MFI and the CD11b (mean MFI); huPP|rhC5a|PMX 53 (50 nM) [2] was 4240 MFI.
With anti-C5aR (CD88) antibody Clone 7H110 the Blocking activity (%) on CD11b upregulation; Pat. 088|Clone 7H110 (50 nM) [2] was 75.7%, the Blocking activity (%) on CD11b upregulation; Pat. 092|Clone 7H110 (50 nM) [2] was 78.7% and the Blocking activity (%) on CD11b upregulation; huPP|rhC5a|Clone 7H110 (50 nM) [2] was 70.7%. For the same substance, the CD11b (mean MFI); Pat. 088|Clone 7H110 (50 nM) [2] was 3560 MFI, the CD11b (mean MFI); Pat. 092|Clone 7H110 (50 nM) [2] was 3390 MFI and the CD11b (mean MFI); huPP|rhC5a|Clone 7H110 (50 nM) [2] was 3380 MFI.
For anti-C5aR (CD88) antibody Clone S5/1, the Blocking activity (%) on CD11b upregulation; Pat. 088|Clone S5/1 (50 nM) [2] was 72.7%, the Blocking activity (%) on CD11b upregulation; Pat. 092|Clone S5/1 (50 nM) [2] was 75.9% and the Blocking activity (%) on CD11b upregulation; huPP|rhC5a|Clone S5/1 (50 nM) [2] was 73%. For the same substance, the CD11b (mean MFI); Pat. 088|Clone S5/1 (50 nM) [2] was 3740 MFI, the CD11b (mean MFI); Pat. 092|Clone S5/1 (50 nM) [2] was 3560 MFI and the CD11b (mean MFI); huPP|rhC5a|Clone S5/1 (50 nM) [2] was 3290 MFI.
